The labels stand for the following.
B1: UFD1L (parent)
chain: EAGGRFVAFSGEGQSLRKKGRKP
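Note: lentivirally expressed fusions sorted by FACS into six bins by GFP to DsRed ratio, PSI derived from sequencing read proportions per bin multiplied by bin number.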

The variants in this data set derive from B1. Briefly: protein stability index of a GFP-peptide fusion (GPS, HEK-293T) (PSI 1-6); higher = more stable. Particulars: c terminus: native.
As to EAGGRFVAFSGEGQSLRQKGRKP, the protein stability index was found to be 1.87.

Take EAGGRFVAFSGEGQSLREKGRKP: the protein stability index was found to be 1.49.

Take EAGGRFVAFSGEGQSLRDKGRKP: the protein stability index was determined as 2.01.

EAGGRFVAFSGEGQSLRHKGRKP: the protein stability index was determined as 1.24.

For EAGGRFVAFSGEGQSLRFKGRKP, the protein stability index was 2.3.

Take EAGGRFVAFSGEGQSLRTKGRKP: the protein stability index was 1.97.

As to EAGGRFVAFSGEGQSLRIKGRKP, the protein stability index was 3.76.

Consider EAGGRAVAFSGEGQSLRKKGRKP, for which the protein stability index was determined as 3.06.

On to EAGGRKVAFSGEGQSLRKKGRKP, for which the protein stability index worked out at 2.25.

As for EAGGRMVAFSGEGQSLRKKGRKP, the protein stability index turned out to be 1.81.

With EAGGRHVAFSGEGQSLRKKGRKP, the protein stability index came to 1.75.

For the variant EAGGRTVAFSGEGQSLRKKGRKP, the protein stability index turned out to be 4.93.

In the case of EAGGRYVAFSGEGQSLRKKGRKP, the protein stability index worked out at 2.38.

In the case of EAGGRFVAFSGEGQTLRKKGRKP, the protein stability index stood at 1.84.

Turning to EAGGRFVAFSGEGQRLRKKGRKP, the protein stability index was determined as 2.45.

For EAGGRFVAFSGEGQYLRKKGRKP, the protein stability index worked out at 2.91.

EAGGRFVAFSGEGQGLRKKGRKP: the protein stability index was found to be 2.42.

Take EAGGRFVAFSGEGQDLRKKGRKP: the protein stability index turned out to be 1.87.

Turning to EAGGRFVAFSGEGQVLRKKGRKP, the protein stability index is 1.72.

For EAGGRFVAFSSEGQSLRKKGRKP, the protein stability index is 1.54.

In the case of EAGGRFVAFSLEGQSLRKKGRKP, the protein stability index stood at 1.85.

For the variant EAGGRFVAFSCEGQSLRKKGRKP, the protein stability index stood at 2.52.

On to EAGGRFVAFSAEGQSLRKKGRKP, for which the protein stability index was found to be 1.26.

For the variant EAGGRFVAFSPEGQSLRKKGRKP, the protein stability index turned out to be 2.21.

EAGGRFVAHSGEGQSLRKKGRKP: the protein stability index is 1.

With EAGGRFVAVSGEGQSLRKKGRKP, the protein stability index came to 2.02.

Take EAGGRFVAQSGEGQSLRKKGRKP: the protein stability index amounted to 2.25.

Take EAGGRFVATSGEGQSLRKKGRKP: the protein stability index amounted to 2.28.

With EAGGRFVAWSGEGQSLRKKGRKP, the protein stability index came out at 2.96.

In the case of EAGGRFVAPSGEGQSLRKKGRKP, the protein stability index was 3.64.

Consider EAGGRFVAESGEGQSLRKKGRKP, for which the protein stability index was determined as 4.02.

Take EAGGRFVAKSGEGQSLRKKGRKP: the protein stability index stood at 1.75.

On to EAGGRFVAFSGEGQSPRKKGRKP, for which the protein stability index was 1.18.

Consider EAGGRFVAFSGEGQSSRKKGRKP, for which the protein stability index was 3.42.

In the case of EAGGRFVAFSGEGQSWRKKGRKP, the protein stability index stood at 1.03.

EAGGRFVAFSGEGQSCRKKGRKP: the protein stability index was 2.79.

As for EAGGRFVAFSGEGQSTRKKGRKP, the protein stability index stood at 2.18.

In the case of EAGGRFVAFSGEGQSMRKKGRKP, the protein stability index is 1.65.

On to EAGGRFVAFSGEGQSVRKKGRKP, for which the protein stability index worked out at 2.98.

EAGGRFVAFSGEGQSNRKKGRKP: the protein stability index was 2.61.

In the case of EAGGRFVAFSGEGQSYRKKGRKP, the protein stability index amounted to 2.51.

Turning to EAGGRFVAFSGEGQSLSKKGRKP, the protein stability index amounted to 2.73.

For EAGGRFVAFSGEGQSLLKKGRKP, the protein stability index came to 2.18.

With EAGGRFVAFSGEGQSLHKKGRKP, the protein stability index stood at 2.2.

For the variant EAGGRFVAFSGEGQSLMKKGRKP, the protein stability index was 2.25.

As to EAGGRFVAFSGEGQSLKKKGRKP, the protein stability index came out at 2.88.

With EAGGRFVAFSGEGQSLGKKGRKP, the protein stability index amounted to 2.95.

As to EAGGRFVAFSGEGQSLRKKGRNP, the protein stability index was found to be 2.93.

With EAGGRFVAFSGEGQSLRKKGRDP, the protein stability index turned out to be 2.

EAGGRFVAFSGEGQSLRKCGRKP: the protein stability index came to 2.4.

On to EAGGRFVAFSGEGQSLRKEGRKP, for which the protein stability index came out at 1.58.

On to EAGGRFVAFSGEGQSLRKTGRKP, for which the protein stability index was 3.08.

EAGGRFVAFSGEGQSLRKGGRKP: the protein stability index worked out at 3.02.

As to EAGGRFVAFSGEGQSLRKQGRKP, the protein stability index came out at 2.05.

On to EAGGRFVAFSGEGQSLRKAGRKP, for which the protein stability index is 3.83.

On to EAGGRFVAFSGEGQSLRKDGRKP, for which the protein stability index stood at 1.74.

As to EAGGRFVAFSGEGQSLRKRGRKP, the protein stability index was determined as 1.68.

EAGDRFVAFSGEGQSLRKKGRKP: the protein stability index was 2.5.

EAGKRFVAFSGEGQSLRKKGRKP: the protein stability index came out at 2.58.

As to EAGLRFVAFSGEGQSLRKKGRKP, the protein stability index was found to be 1.25.

As for EAGHRFVAFSGEGQSLRKKGRKP, the protein stability index amounted to 2.12.

On to EAGSRFVAFSGEGQSLRKKGRKP, for which the protein stability index is 3.12.

As for EAGGRFVAFSGEGQSLRKKGLKP, the protein stability index worked out at 2.88.

As for EAGGRFVAFSGEGQSLRKKGPKP, the protein stability index worked out at 4.98.

As to EAGGRFVAFSGEGQSLRKKGNKP, the protein stability index was determined as 5.27.

On to EAGGRFVAFSGEGQSLRKKGGKP, for which the protein stability index came out at 5.2.

In the case of EAGGRFVAFSGEGQSLRKKGMKP, the protein stability index was found to be 4.38.

Consider EAGGRFVAFSGEGQSLRKKGTKP, for which the protein stability index was 4.35.

On to EAGGRFVAFSGEGQSLRKKGIKP, for which the protein stability index turned out to be 3.99.

For the variant EAGGRFVAFSGEGQSLRKKGKKP, the protein stability index was 5.

For the variant EAGGRFVAFSGEGQSLRKKGVKP, the protein stability index was determined as 4.06.

Take TAGGRFVAFSGEGQSLRKKGRKP: the protein stability index stood at 2.17.

Regarding LAGGRFVAFSGEGQSLRKKGRKP, the protein stability index turned out to be 1.92.

Consider YAGGRFVAFSGEGQSLRKKGRKP, for which the protein stability index stood at 3.86.

DAGGRFVAFSGEGQSLRKKGRKP: the protein stability index came out at 2.33.

On to EAGGRFVAFSGEGNSLRKKGRKP, for which the protein stability index is 2.02.

As for EAGGRFVAFSGEGASLRKKGRKP, the protein stability index turned out to be 1.83.

On to EAGGRFVAFSGEGGSLRKKGRKP, for which the protein stability index worked out at 2.12.

Regarding EAGGRFVAFSGEGVSLRKKGRKP, the protein stability index came to 2.4.

Turning to EAGGRFVAFSGEGFSLRKKGRKP, the protein stability index was 2.93.

Turning to EAGGRFVAFSGEGQSLRKKWRKP, the protein stability index amounted to 1.81.

For EAGGRFVAFSGEGQSLRKKVRKP, the protein stability index is 2.53.

Take EAGGRFVAFSGEGQSLRKKERKP: the protein stability index worked out at 2.78.

As for EAGGRFVAFSGEGQSLRKKLRKP, the protein stability index amounted to 2.04.

Consider EAGGRFVAFSGEGQSLRKKHRKP, for which the protein stability index came to 3.25.

As for EAGGRFVAFSGEGQSLRKKNRKP, the protein stability index came to 1.82.

Regarding EAGGRFVAFSGEGQSLRKKSRKP, the protein stability index stood at 2.12.

Regarding EAGGRFVAFSGEGQSLRKKPRKP, the protein stability index came to 4.77.

As to EAGGRFVAFSGEGQSLRKKMRKP, the protein stability index is 1.57.

EAGGRFVAFSGEGQSLRKKKRKP: the protein stability index is 4.63.

Consider EAGGRFVAFSGEGQSLRKKDRKP, for which the protein stability index stood at 2.12.

With EAGGRFGAFSGEGQSLRKKGRKP, the protein stability index was 1.39.

Consider EAGGRFYAFSGEGQSLRKKGRKP, for which the protein stability index worked out at 1.12.

Turning to EAGGRFEAFSGEGQSLRKKGRKP, the protein stability index turned out to be 2.91.

As for EAGGRFTAFSGEGQSLRKKGRKP, the protein stability index stood at 1.18.

For EAGGRFLAFSGEGQSLRKKGRKP, the protein stability index came to 1.5.

The record behind these values is the supplement of paper PMC10567573.
